# Source: patent publication US20200024330A1
# B1: PGT-128 (antibody, V domains shown)
# VH: QPQLQESGPTLVEASETLSLTCAVSGDSTAACNSFWGWVRQPPGKGLEWVGSLSHCASYWNRGWTYHNPSLKSRLTLALDTPKNLVFLKLNSVTAADTATYYCARFGGEVLRYTDWPKPAWVDLWGRGTLVTVSS
# VL: QSALTQPPSASGSPGQSITISCTGTSNNFVSWYQQHAGKAPKLVIYDVNKRPSGVPDRFSGSKSGNTASLTVSGLQTDDEAVYYCGSLVGNWDVIFGGGTKLTVL
# B2: PGT-130 (antibody, V domains shown)
# VH: QVQLQESGPGLVKPAETLSLTCSVSGESINTGHYYWGWVRQVPGKGLEWIGHIHYTTAVLHNPSLKSRLTIKIYTLRNQITLRLSNVTAADTAVYHCVRSGGDILYYYEWQKPHWFSPWGPGIHVTVSS
# VL: QSALTQPPSASGSLGQSVTISCNGTSSDIGGWNFVSWYQQFPGRAPRLIIFEVNKRPSGVPGRFSGSKSGNSASLTVSGLQSDDEGQYFCSSLFGRWDVVFGGGTKLTVL
# Key:
# Experiment in all cases: cell-based or functional assay
# [1] = target: HIV-1 JR-CSF Env I326A (HIV-1 isolate JR-CSF) (UniProt P20871)
# [2] = target: HIV-1 JR-CSF Env T319A (HIV-1 isolate JR-CSF) (UniProt P20871)
# [3] = target: HIV-1 JR-CSF Env I309A (HIV-1 JR-CSF) (UniProt P20871)
# [4] = target: HIV-1 JR-CSF Env N396A (HIV-1 (isolate JR-CSF)) (UniProt P20871)
# [5] = target: Env of the clade B HIV-1 pseudoviruses of the cross-clade 162-pseudovirus panel (n = 31)
# [6] = target: HIV-1 JR-CSF Env N241A (HIV-1 JR-CSF) (UniProt P20871)
# [7] = target: HIV-1 Env of isolate MGRM-C-026 (HIV-1)
# [8] = target: HIV-1 JR-CSF Env K343A (HIV-1 isolate JR-CSF) (UniProt P20871)
# [9] = target: HIV-1 JR-CSF Env W395A (HIV-1 (isolate JR-CSF)) (UniProt P20871)
# [10] = target: HIV-1 JR-CSF Env N262A (HIV-1 JR-CSF) (UniProt P20871)
# [11] = target: HIV-1 JR-CSF Env F210A (HIV-1 JR-CSF) (UniProt P20871)
# [12] = target: Env of the clade C HIV-1 pseudoviruses of the cross-clade 162-pseudovirus panel (n = 27)
# [13] = target: HIV-1 JR-CSF Env I414A (HIV-1 (isolate JR-CSF)) (UniProt P20871)
# [14] = target: HIV-1 JR-CSF Env T202A (HIV-1 JR-CSF) (UniProt P20871)
# [15] = target: HIV-1 JR-CSF Env K305A (HIV-1 JR-CSF) (UniProt P20871)
# [16] = target: HIV-1 JR-CSF Env S334A (HIV-1 isolate JR-CSF) (UniProt P20871)
# [17] = target: Env of the clade G HIV-1 pseudoviruses of the cross-clade 162-pseudovirus panel (n = 15)
# [18] = target: HIV-1 JR-CSF Env D325A (HIV-1 isolate JR-CSF) (UniProt P20871)
# [19] = target: HIV-1 JR-CSF Env T297A (HIV-1 JR-CSF) (UniProt P20871)
# [20] = target: HIV-1 JR-CSF Env I415A (HIV-1 (isolate JR-CSF)) (UniProt P20871)
# [21] = target: HIV-1 JR-CSF Env T388A (HIV-1 (isolate JR-CSF)) (UniProt P20871)
# [22] = target: HIV-1 JR-CSF Env F317A (HIV-1 isolate JR-CSF) (UniProt P20871)
# [23] = target: HIV-1 JR-CSF Env I424A (HIV-1 (isolate JR-CSF)) (UniProt P20871)
# [24] = target: HIV-1 JR-CSF Env I307A (HIV-1 JR-CSF) (UniProt P20871)
# [25] = target: HIV-1 JR-CSF Env S387A (HIV-1 (isolate JR-CSF)) (UniProt P20871)
# [26] = target: HIV-1 JR-CSF Env S199A (HIV-1 JR-CSF) (UniProt P20871)
# [27] = target: HIV-1 JR-CSF Env V292A (HIV-1 JR-CSF) (UniProt P20871)
# [28] = target: HIV-1 JR-CSF Env D417A (HIV-1 (isolate JR-CSF)) (UniProt P20871)
# [29] = target: HIV-1 JR-CSF Env L416A (HIV-1 (isolate JR-CSF)) (UniProt P20871)
# [30] = target: HIV-1 JR-CSF Env R315A (HIV-1 isolate JR-CSF) (UniProt P20871)
# [31] = target: HIV-1 JR-CSF Env S393A (HIV-1 (isolate JR-CSF)) (UniProt P20871)
# [32] = target: Env of the clade AG HIV-1 pseudoviruses of the cross-clade 162-pseudovirus panel (n = 10)
# [33] = target: HIV-1 JR-CSF Env N302A (HIV-1 JR-CSF) (UniProt P20871)
# [34] = target: HIV-1 JR-CSF Env I423A (HIV-1 (isolate JR-CSF)) (UniProt P20871)
# [35] = target: Env of all HIV-1 pseudoviruses of the cross-clade 162-pseudovirus panel (n = 162)
# [36] = target: HIV-1 JR-CSF Env T320A (HIV-1 isolate JR-CSF) (UniProt P20871)
# [37] = target: HIV-1 Env of isolate 92TH021 (HIV-1)
# [38] = target: HIV-1 JR-CSF Env N339A (HIV-1 isolate JR-CSF) (UniProt P20871)
# [39] = target: HIV-1 JR-CSF Env P313A (HIV-1 JR-CSF) (UniProt P20871)
binder,measurement,setting,value
B1,Fold IC50 increase relative to wild-type,[1],1.6 fold
same,Fold IC50 increase relative to wild-type,[2],0.5 fold
same,Fold IC50 increase relative to wild-type,[3],2.8 fold
same,Fold IC50 increase relative to wild-type,[4],0.9 fold
same,Median IC50 against viruses neutralized with an IC50 <50 µg/ml,[5],0.01 µg/mL
same,Fold IC50 increase relative to wild-type,[6],0.7 fold
same,Polyclonal Transfectant Neutralization Index (well 5114 A19),[7],32.2
same,Primary Neutralization Index (B cell culture well 5114 A19),[7],17.1
same,Fold IC50 increase relative to wild-type,[8],1 fold
same,Fold IC50 increase relative to wild-type,[9],0.8 fold
same,Fold IC50 increase relative to wild-type,[10],1.6 fold
same,Fold IC50 increase relative to wild-type,[11],0.8 fold
same,Median IC50 against viruses neutralized with an IC50 <50 µg/ml,[12],0.04 µg/mL
same,Fold IC50 increase relative to wild-type,[13],1.4 fold
same,Fold IC50 increase relative to wild-type,[14],1.1 fold
same,Fold IC50 increase relative to wild-type,[15],1.8 fold
same,Fold IC50 increase relative to wild-type,[16],1.4 fold
same,Median IC50 against viruses neutralized with an IC50 <50 µg/ml,[17],0.04 µg/mL
same,Fold IC50 increase relative to wild-type,[18],0.5 fold
same,Fold IC50 increase relative to wild-type,[19],1.1 fold
same,Fold IC50 increase relative to wild-type,[20],0.7 fold
same,Fold IC50 increase relative to wild-type,[21],1 fold
same,Fold IC50 increase relative to wild-type,[22],0.8 fold
same,Fold IC50 increase relative to wild-type,[23],1.3 fold
same,Fold IC50 increase relative to wild-type,[24],3.7 fold
same,Fold IC50 increase relative to wild-type,[25],1.2 fold
same,Fold IC50 increase relative to wild-type,[26],1 fold
same,Fold IC50 increase relative to wild-type,[27],2.1 fold
same,Fold IC50 increase relative to wild-type,[28],0.5 fold
same,Fold IC50 increase relative to wild-type,[29],1.1 fold
same,Fold IC50 increase relative to wild-type,[30],0.4 fold
same,Fold IC50 increase relative to wild-type,[31],1.4 fold
same,Median IC50 against viruses neutralized with an IC50 <50 µg/ml,[32],0.67 µg/mL
same,Fold IC50 increase relative to wild-type,[33],1.5 fold
same,Fold IC50 increase relative to wild-type,[34],2.6 fold
same,Median IC50 against viruses neutralized with an IC50 <50 µg/ml,[35],0.07 µg/mL
same,Fold IC50 increase relative to wild-type,[36],1 fold
same,Polyclonal Transfectant Neutralization Index (well 5114 A19),[37],10
same,Primary Neutralization Index (B cell culture well 5114 A19),[37],6.6
same,Fold IC50 increase relative to wild-type,[38],0.8 fold
same,Fold IC50 increase relative to wild-type,[39],1 fold
B2,Fold IC50 increase relative to wild-type,[1],1.3 fold
same,Fold IC50 increase relative to wild-type,[2],1.6 fold
same,Fold IC50 increase relative to wild-type,[3],> 77.9 fold
same,Fold IC50 increase relative to wild-type,[4],1 fold
same,Median IC50 against viruses neutralized with an IC50 <50 µg/ml,[5],0.09 µg/mL
same,Fold IC50 increase relative to wild-type,[6],0.6 fold
same,Polyclonal Transfectant Neutralization Index (well 5147 N6),[7],1.05
same,Primary Neutralization Index (B cell culture well 5147 N6),[7],3
same,Fold IC50 increase relative to wild-type,[8],1.1 fold
same,Fold IC50 increase relative to wild-type,[9],0.6 fold
same,Fold IC50 increase relative to wild-type,[10],0.7 fold
same,Fold IC50 increase relative to wild-type,[11],1.7 fold
same,Median IC50 against viruses neutralized with an IC50 <50 µg/ml,[12],0.15 µg/mL
same,Fold IC50 increase relative to wild-type,[13],0.7 fold
same,Fold IC50 increase relative to wild-type,[14],1.2 fold
same,Fold IC50 increase relative to wild-type,[15],6.9 fold
same,Fold IC50 increase relative to wild-type,[16],0.5 fold
same,Median IC50 against viruses neutralized with an IC50 <50 µg/ml,[17],4.14 µg/mL
same,Fold IC50 increase relative to wild-type,[18],> 1000 fold
same,Fold IC50 increase relative to wild-type,[19],0.9 fold
same,Fold IC50 increase relative to wild-type,[20],0.6 fold
same,Fold IC50 increase relative to wild-type,[21],1 fold
same,Fold IC50 increase relative to wild-type,[22],17 fold
same,Fold IC50 increase relative to wild-type,[23],3.9 fold
same,Fold IC50 increase relative to wild-type,[24],1000 fold
same,Fold IC50 increase relative to wild-type,[25],0.7 fold
same,Fold IC50 increase relative to wild-type,[26],0.9 fold
same,Fold IC50 increase relative to wild-type,[27],0.9 fold
same,Fold IC50 increase relative to wild-type,[28],1 fold
same,Fold IC50 increase relative to wild-type,[29],1 fold
same,Fold IC50 increase relative to wild-type,[30],0.6 fold
same,Fold IC50 increase relative to wild-type,[31],0.7 fold
same,Median IC50 against viruses neutralized with an IC50 <50 µg/ml,[32],0.04 µg/mL
same,Fold IC50 increase relative to wild-type,[33],1.1 fold
same,Fold IC50 increase relative to wild-type,[34],> 1000 fold
same,Median IC50 against viruses neutralized with an IC50 <50 µg/ml,[35],0.18 µg/mL
same,Fold IC50 increase relative to wild-type,[36],0.9 fold
same,Polyclonal Transfectant Neutralization Index (well 5147 N6),[37],4.2
same,Primary Neutralization Index (B cell culture well 5147 N6),[37],538
same,Fold IC50 increase relative to wild-type,[38],0.2 fold
same,Fold IC50 increase relative to wild-type,[39],0.3 fold
